Experimental data from article PMC8006170.

Substrate: NCC(=O)CCC(=O)O
Experiment: PbgS activity assay in lysate of overexpressing cells, Michaelis-Menten
Assay type: biochemical, Acinetobacter baumannii
Conditions: native wt lysate included as control to subtract basal activity

B1: PbgS(wt) (Acinetobacter baumannii ATCC 19606 = CIP 70.34 = JCM 6841) (protein)
chain: MGLQYSSRLTVMEYPPTYPSVIPNIEIVMTYTFNRPAFPATRMRRIRKNDQLRAMVSETQLTTNHLIYPVFVLPGQNQTQDIPSMPNIQRLSADLLLKKAERLLELGVSKLALFPVTPQEDKSLTAEAAWREDGLVQTTCRLLKKELPEMVLITDGALDPYTTHGQDGIIDETGYVLNDETVECLIKQALSHAEAGAEVIAPSDMMDGRIGAIRQALEANGHIYTNIMAYSAKYASSFYGPFRDAVGSASNLKGGNKYNYQMDFANRAEALHEIALDIQEGADMVIVKPGMPYLDVVREVKDTFGIPTFIYQVSGEYAMLAGAIQNGWLSDSVILESLMCCRRAGADGIWTYFAETAAEKLKEMN
Km: 153 µM
